Measured values from patent US20240182536A1 (MURAL ONCOLOGY, published 2024).

T1: interleukin 18 binding protein (IL-18BP) (UniProt O95998 31-194)
T1 sequence (looked up): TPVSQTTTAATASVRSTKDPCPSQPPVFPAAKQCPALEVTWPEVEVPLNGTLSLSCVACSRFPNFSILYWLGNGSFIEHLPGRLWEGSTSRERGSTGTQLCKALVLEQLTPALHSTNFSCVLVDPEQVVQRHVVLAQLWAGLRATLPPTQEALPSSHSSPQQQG

T2: IL-18 receptors on HEK-Blue IL-18 reporter cells (UniProt Q13478 19-541; O95256 20-599, limits assumed)
T2 sequence (looked up) 1: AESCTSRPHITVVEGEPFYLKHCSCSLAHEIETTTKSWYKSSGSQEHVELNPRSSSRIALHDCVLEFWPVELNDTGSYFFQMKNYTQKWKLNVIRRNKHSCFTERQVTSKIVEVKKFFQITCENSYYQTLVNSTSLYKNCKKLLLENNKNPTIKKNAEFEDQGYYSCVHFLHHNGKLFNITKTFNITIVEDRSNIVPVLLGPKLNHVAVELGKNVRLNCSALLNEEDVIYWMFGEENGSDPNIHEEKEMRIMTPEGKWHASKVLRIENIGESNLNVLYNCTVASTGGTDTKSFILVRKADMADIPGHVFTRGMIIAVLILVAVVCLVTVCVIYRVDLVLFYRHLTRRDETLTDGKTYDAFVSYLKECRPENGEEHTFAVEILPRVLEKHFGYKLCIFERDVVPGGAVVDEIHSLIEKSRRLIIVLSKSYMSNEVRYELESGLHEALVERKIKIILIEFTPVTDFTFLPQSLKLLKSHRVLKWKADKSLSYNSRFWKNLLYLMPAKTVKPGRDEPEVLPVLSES
T2 sequence (looked up) 2: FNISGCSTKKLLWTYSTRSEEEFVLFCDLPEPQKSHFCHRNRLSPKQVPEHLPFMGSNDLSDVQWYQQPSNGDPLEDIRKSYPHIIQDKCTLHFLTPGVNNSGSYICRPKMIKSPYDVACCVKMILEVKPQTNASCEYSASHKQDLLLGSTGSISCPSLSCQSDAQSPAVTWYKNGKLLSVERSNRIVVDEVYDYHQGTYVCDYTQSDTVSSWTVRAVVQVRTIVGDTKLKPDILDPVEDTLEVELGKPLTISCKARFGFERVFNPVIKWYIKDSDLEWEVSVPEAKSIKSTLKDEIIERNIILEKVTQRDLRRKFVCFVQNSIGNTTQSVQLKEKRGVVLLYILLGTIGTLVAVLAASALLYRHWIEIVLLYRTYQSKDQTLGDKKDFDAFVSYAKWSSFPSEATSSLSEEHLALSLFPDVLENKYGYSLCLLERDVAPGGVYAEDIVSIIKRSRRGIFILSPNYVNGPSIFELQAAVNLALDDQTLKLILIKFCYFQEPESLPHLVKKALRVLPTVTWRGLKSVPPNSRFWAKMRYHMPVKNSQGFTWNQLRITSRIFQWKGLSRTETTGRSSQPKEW

B1: IL-18 variant K53N, S55A, R104N, P107A, H109Y (ligand)
chain: YFGKLESKLSVIRNLNDQVLFIDQGNRPLFEDMTDSDMRDNAPRTIFIISMYNDAQPRGMAVTISVKSEKISTLSSENKIISFKEMNPPDNIKDTKSDIIFFQNSVAGYDNKMQFESSSYEGYFLASEKERDLFKLILKKEDELGDRSIMFTVQNED
B2: IL-18 variant K53S, S55Y, P107M (ligand)
chain: YFGKLESKLSVIRNLNDQVLFIDQGNRPLFEDMTDSDMRDNAPRTIFIISMYSDYQPRGMAVTISVKSEKISTLSSENKIISFKEMNPPDNIKDTKSDIIFFQRSVMGHDNKMQFESSSYEGYFLASEKERDLFKLILKKEDELGDRSIMFTVQNED
B3: IL-18 variant K53H, S55H (ligand)
chain: YFGKLESKLSVIRNLNDQVLFIDQGNRPLFEDMTDSDMRDNAPRTIFIISMYHDHQPRGMAVTISVKSEKISTLSSENKIISFKEMNPPDNIKDTKSDIIFFQRSVPGHDNKMQFESSSYEGYFLASEKERDLFKLILKKEDELGDRSIMFTVQNED
B4: IL-18 variant K53Y, S55Y, Q56H (ligand)
chain: YFGKLESKLSVIRNLNDQVLFIDQGNRPLFEDMTDSDMRDNAPRTIFIISMYYDYHPRGMAVTISVKSEKISTLSSENKIISFKEMNPPDNIKDTKSDIIFFQRSVPGHDNKMQFESSSYEGYFLASEKERDLFKLILKKEDELGDRSIMFTVQNED
B5: IL-18 variant L9V, K53H, S55M (ligand)
chain: YFGKLESKVSVIRNLNDQVLFIDQGNRPLFEDMTDSDMRDNAPRTIFIISMYHDMQPRGMAVTISVKSEKISTLSSENKIISFKEMNPPDNIKDTKSDIIFFQRSVPGHDNKMQFESSSYEGYFLASEKERDLFKLILKKEDELGDRSIMFTVQNED
B6: IL-18 variant K53Y, S55V (ligand)
chain: YFGKLESKLSVIRNLNDQVLFIDQGNRPLFEDMTDSDMRDNAPRTIFIISMYYDVQPRGMAVTISVKSEKISTLSSENKIISFKEMNPPDNIKDTKSDIIFFQRSVPGHDNKMQFESSSYEGYFLASEKERDLFKLILKKEDELGDRSIMFTVQNED
B7: IL-18 variant K53H, S55I (ligand)
chain: YFGKLESKLSVIRNLNDQVLFIDQGNRPLFEDMTDSDMRDNAPRTIFIISMYHDIQPRGMAVTISVKSEKISTLSSENKIISFKEMNPPDNIKDTKSDIIFFQRSVPGHDNKMQFESSSYEGYFLASEKERDLFKLILKKEDELGDRSIMFTVQNED
B8: IL-18 variant K53N, S55Y (ligand)
chain: YFGKLESKLSVIRNLNDQVLFIDQGNRPLFEDMTDSDMRDNAPRTIFIISMYNDYQPRGMAVTISVKSEKISTLSSENKIISFKEMNPPDNIKDTKSDIIFFQRSVPGHDNKMQFESSSYEGYFLASEKERDLFKLILKKEDELGDRSIMFTVQNED
B9: IL-18 variant K53D, S55Q, P107M (ligand)
chain: YFGKLESKLSVIRNLNDQVLFIDQGNRPLFEDMTDSDMRDNAPRTIFIISMYDDQQPRGMAVTISVKSEKISTLSSENKIISFKEMNPPDNIKDTKSDIIFFQRSVMGHDNKMQFESSSYEGYFLASEKERDLFKLILKKEDELGDRSIMFTVQNED
B10: IL-18 variant S36E, D37E, D40R, N41G, K53Y, S55F (ligand)
chain: YFGKLESKLSVIRNLNDQVLFIDQGNRPLFEDMTDEEMRRGAPRTIFIISMYYDFQPRGMAVTISVKSEKISTLSSENKIISFKEMNPPDNIKDTKSDIIFFQRSVPGHDNKMQFESSSYEGYFLASEKERDLFKLILKKEDELGDRSIMFTVQNED
B11: IL-18 variant K53V, S55Q (ligand)
chain: YFGKLESKLSVIRNLNDQVLFIDQGNRPLFEDMTDSDMRDNAPRTIFIISMYVDQQPRGMAVTISVKSEKISTLSSENKIISFKEMNPPDNIKDTKSDIIFFQRSVPGHDNKMQFESSSYEGYFLASEKERDLFKLILKKEDELGDRSIMFTVQNED

What was measured:
[1] = target: T1, interleukin 18 binding protein (IL-18BP); assay: cell-based or functional assay
[2] = target: T2, IL-18 receptors on HEK-Blue IL-18 …; assay: cell-based or functional assay

Binder	HEK-Blue activity, +100 nM BP, DF-10000 [1]	HEK-Blue activity, +100 nM BP, DF-100,000 [1]	HEK-Blue activity, +100 nM BP, DF-1,000,000 [1]	Ratio (-BP/+BP), DF-10000 [1]	Ratio (-BP/+BP), DF-100,000 [1]	Ratio (-BP/+BP), DF-1,000,000 [1]	HEK-Blue activity, No BP, DF-10000 [2]	HEK-Blue activity, No BP, DF-100,000 [2]	HEK-Blue activity, No BP, DF-1,000,000 [2]
B1	0.13	0.12	0.14	1.64	1.1	0.93	0.21	0.13	0.13
B2	0.19	0.14	0.18	0.82	0.76	0.69	0.15	0.11	0.12
B3	0.15	0.1	0.09	1.01	0.99	0.96	0.15	0.1	0.08
B4	0.22	0.2	0.19	0.73	0.76	0.73	0.16	0.15	0.14
B5	0.16	0.1	0.14	0.94	1.01	0.78	0.15	0.1	0.11
B6	0.16	0.14	0.13	1.03	1.44	1.27	0.16	0.2	0.16
B7	0.16	0.11	0.1	0.92	0.9	0.89	0.14	0.1	0.09
B8	0.14	0.09	0.09	1.11	1.02	0.96	0.16	0.09	0.08
B9	0.22	0.14	0.13	0.85	0.97	1.02	0.19	0.13	0.13
B10	0.16	0.19	0.14	1.19	0.64	1.06	0.2	0.12	0.14
B11	0.2	0.17	0.13	1	0.81	0.88	0.2	0.14	0.11
